The numbers were not newly measured in patent publication US20260263353A1, “PROGRAMMABLE DRUG-DEVICE MICRONEEDLE SYSTEM FOR THE DELIVERY AND MONITORING OF DIABETES AND OBESITY MEDICATIONS” (ALJ Creative Works, LLC, priority 2023, published 2026), which cites them from elsewhere.

The conditions of the data set: once weekly dosing at clinically relevant doses; literature reference [26].

In the case of Insulin ICODEC, the half-life result was “about 196 hours”; the safety and tolerability entry is “safe and well-tolerated”.
